Experimental findings from patent publication US20220002426A1 (BIOINVENT INTERNATIONAL, published 2022) are described below.

Assay [1] concerns the target T1, recombinant human TNFR2-Fc protein (Sino Biological) (human, UniProt P20333 23-257, limits assumed).
T1 construct: bought; also called human TNFR2 protein; not shown: Fc part of the bought fusion protein; not described
T1 sequence (looked up): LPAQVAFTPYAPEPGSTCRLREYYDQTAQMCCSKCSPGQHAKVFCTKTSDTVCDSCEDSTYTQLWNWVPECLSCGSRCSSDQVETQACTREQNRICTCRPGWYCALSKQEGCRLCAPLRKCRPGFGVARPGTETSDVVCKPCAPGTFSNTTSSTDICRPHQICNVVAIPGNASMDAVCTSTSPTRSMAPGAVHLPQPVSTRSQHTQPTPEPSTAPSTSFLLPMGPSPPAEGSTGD
The experiment in a line: ELISA, coated TNFR2-Fc. The procedure:
(§1) 96-well plates (Lumitrac 600 LIA plate, Greiner) were coated overnight at 4° C. with recombinant human or mouse TNFR2-Fc protein (Sino Biological) at 1 pmol/well. After washing, titrated doses of anti-TNFR2 mAbs from 20 μg/ml to 0.1 ng/ml (133 nM to 1 pM) were allowed to bind for 1 hour. Plates were then washed again, and bound antibodies were detected with an anti-human-F(ab)-HRP secondary antibody (Jackson ImmunoResearch) diluted in 50 ng/ml. Super Signal ELISA Pico (Thermo Scientific) was used as substrate and the plates were analyzed using Tecan Ultra Microplate reader.

In assay [2] the target is T2, wild type, full length human TNFR2 (on cells) (human, UniProt P20333 23-461).
T2 construct: whole, on cells; also called hTNFR2; TNFRII
T2 sequence (looked up): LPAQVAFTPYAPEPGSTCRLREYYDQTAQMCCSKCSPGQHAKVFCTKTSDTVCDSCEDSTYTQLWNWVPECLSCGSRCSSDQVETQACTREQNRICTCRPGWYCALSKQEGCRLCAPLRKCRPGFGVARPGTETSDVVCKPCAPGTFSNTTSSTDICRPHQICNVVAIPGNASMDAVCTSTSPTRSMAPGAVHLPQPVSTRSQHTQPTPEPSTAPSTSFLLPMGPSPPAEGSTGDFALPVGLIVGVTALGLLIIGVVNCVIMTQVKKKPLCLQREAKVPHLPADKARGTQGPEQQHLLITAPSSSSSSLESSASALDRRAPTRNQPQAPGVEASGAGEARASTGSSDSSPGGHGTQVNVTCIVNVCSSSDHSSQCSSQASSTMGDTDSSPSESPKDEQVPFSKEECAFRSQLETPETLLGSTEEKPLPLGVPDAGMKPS
The experiment in a line: FACS, activated CD4+ T cells. The procedure:
The ability and affinity of TNFR2 n-CoDeR® antibodies to bind TNFR2 expressed on cells were obtained using in vitro activated CD4⁺ T cells. Human CD4⁺ T cells were stimulated with 50 ng/ml rhIL-2 (R&D systems) and Dynabeads® T-Activator CD3/CD28 for T-Cell Expansion and Activation (Gibco) 2-3 days at 37 degrees. […] Cells were then incubated with an APC conjugated a-human IgG secondary ab (Jackson) followed by analysis by flow cytometry (FACSVerse, BD).
For orientation: In flow cytometry, cells or beads pass a laser one at a time.

Assay [3] concerns the target T3, hTNFRII (Sinobioologicals Cat nr10414-H08H) (human, UniProt P20333 23-257).
T3 construct: bought; also called immobilized TNFR2
T3 sequence (looked up): T1 sequence (looked up)
Put plainly: blocking ELISA, coated hTNFRII, competitor hTNF-α-bio 5 nM. The procedure:
(§2) 96-well plates were coated with hTNFRII (Sinobioologicals Cat nr10414-H08H) or mTNFRII (Sinobioologicals Cat No. 50128 M08H) at 2.5 pmol/well in ELISA coating buffer (0.1 M sodium carbonate pH 9.5) and incubated overnight at 4° C. After washing in ELISA wash buffer (PBS with 0.05% Tween20), the plates were incubated under slow agitation for 1 h in room temperature with n-CoDeR® mAbs at 10 μg/ml (one-dose ELISA) or 33 nM and subsequent 1:2 dilutions (titration ELISA) in block buffer containing 0.45% fish gelatin. […] Thereafter, plates were washed. For the human ELISAs, Streptavidin-HRP (Jackson Cat No. 016-030-084) diluted 1:2000 in block buffer were added and again incubated for 1 h at room temperature followed by washes first in ELISA buffer and then in Tris buffer (pH 9.8). The substrate (Super Signal ELISA Pico from Thermo Scientific Cat. No. 37069) were thereafter diluted according to the manufacturers instruction, added to the wells and incubated in darkness for 10 min before reading in a Tecan Ultra. […] After washing, anti-Rabbit-HRP diluted 1:10 000 in block buffer was added and again incubated for 1 h at room temperature. Substrate adding and reading were performed as above.

The target of assay [4] is T4, Cynomolgus TNFR2 (on cynomolgus CD4+ T cells) (cynomolgus monkey (Macaca fascicularis), UniProt A0A2K5VET2 132-571).
T4 construct: whole, on cells; also called cmTNFR2; cynoTNFR2
T4 sequence: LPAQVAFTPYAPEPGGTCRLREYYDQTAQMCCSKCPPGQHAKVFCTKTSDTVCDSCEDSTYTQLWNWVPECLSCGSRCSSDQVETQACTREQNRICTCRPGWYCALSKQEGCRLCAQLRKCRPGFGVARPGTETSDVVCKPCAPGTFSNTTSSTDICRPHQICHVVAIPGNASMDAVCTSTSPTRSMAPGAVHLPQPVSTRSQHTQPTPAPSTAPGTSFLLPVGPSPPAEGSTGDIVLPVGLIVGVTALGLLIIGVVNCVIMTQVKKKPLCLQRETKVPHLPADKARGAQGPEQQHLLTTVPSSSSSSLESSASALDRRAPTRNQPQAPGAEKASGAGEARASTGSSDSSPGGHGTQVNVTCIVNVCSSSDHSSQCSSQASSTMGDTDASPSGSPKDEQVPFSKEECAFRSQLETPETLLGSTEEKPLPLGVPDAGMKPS
Put plainly: FACS, stimulated cynomolgus CD4+ T cells, % over isotype. The procedure:
To validate the cross-reactivity of TNFR2 antibodies to Cynomolgus, Cynomolgus CD4⁺ T cells were stimulated 2 days with 50 ng/ml PMA (Sigma) and 100 ng/ml lonomycin (Sigma). Cells were incubated with TNFR2 specific n-CoDeR® antibodies at 3 different concentrations (0.1, 1 and 10 μg/ml) and then incubated with an APC conjugated secondary a-human IgG reagent (Jackson).

Assay [5] concerns the target T5, recombinant mouse TNFR2-Fc protein (Sino Biological) (mouse, UniProt P25119 23-258, limits assumed).
T5 construct: bought; also called mTNFR2 protein; mTNFR2; not shown: Fc part of the bought fusion protein; not described
T5 sequence (looked up): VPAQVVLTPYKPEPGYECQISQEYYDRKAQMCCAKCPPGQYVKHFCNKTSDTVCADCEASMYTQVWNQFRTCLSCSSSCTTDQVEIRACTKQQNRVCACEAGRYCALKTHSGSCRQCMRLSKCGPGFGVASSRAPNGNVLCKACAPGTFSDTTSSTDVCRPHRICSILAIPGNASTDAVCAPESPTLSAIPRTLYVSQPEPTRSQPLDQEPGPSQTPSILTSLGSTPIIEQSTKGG
Put plainly: ELISA, coated TNFR2-Fc. The procedure: as §1

The target in assay [6] is T6, wild type, full length murine TNFR2 (on cells) (mouse, UniProt P25119 23-474).
T6 construct: whole, on cells; also called mTNFR2; mouse TNFR2
T6 sequence (looked up): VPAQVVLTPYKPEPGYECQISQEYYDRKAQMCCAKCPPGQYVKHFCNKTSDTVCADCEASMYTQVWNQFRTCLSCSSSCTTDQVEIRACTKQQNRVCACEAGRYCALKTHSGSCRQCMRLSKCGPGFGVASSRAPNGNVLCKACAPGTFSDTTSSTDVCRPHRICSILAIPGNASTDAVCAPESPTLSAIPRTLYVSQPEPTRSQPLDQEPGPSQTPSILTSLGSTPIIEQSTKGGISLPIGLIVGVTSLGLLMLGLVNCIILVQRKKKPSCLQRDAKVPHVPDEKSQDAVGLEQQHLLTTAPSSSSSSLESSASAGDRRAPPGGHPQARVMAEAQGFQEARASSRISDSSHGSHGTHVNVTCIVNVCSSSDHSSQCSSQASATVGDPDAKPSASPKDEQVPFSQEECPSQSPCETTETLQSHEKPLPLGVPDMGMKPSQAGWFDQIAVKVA
The experiment in a line: FACS, activated mouse CD4+ T cells.

Assay [7] has as its target T7, mTNFRII (Sinobioologicals Cat No. 50128 M08H) (mouse, UniProt P25119 23-258, limits assumed).
T7 construct: bought
T7 sequence (looked up): T5 sequence (looked up)
The experiment in a line: blocking ELISA, coated mTNFRII, competitor mTNF-α 2 nM. The procedure:
as §2
In general terms: In an ELISA, binding on a coated surface is turned into a signal by an enzyme label.

B1: 001-G04 (antibody, V domains shown)
VH: EVQLLESGGGLVQPGGSLRLSCAASGFTFNTYSMNWVRQAPGKGLEWVSVLYSDDDTHYADSVKGRFTISRDNSKNTLYLQMNSLRAEDTAVYYCARDCGGDCHSGDDAFDIWGQGTLVTVSS
VL: not shown
notes: IgG
Usually EC50 stands for the concentration at which the effect is half-maximal. Take B1: the figures for the EC50 in assay [1], in assay [2] and in assay [3] were 1.7 nM, 18 nM and 3.2 nM, respectively. The binding result in assay [4] is reported as “no binding (tested: 10 µg/ml)”.

B2: 003-F10 (antibody, V domains shown)
VH: EVQLLESGGGLVQPGGSLRLSCAASGFTFSDAWMTWVRQAPGKGLEWVSDLSDSGGSTYYADSVKGRFTISRDNSKNTLYLQMNSLRAEDTAVYYCGRLAAGGPVDYWGQGTLVTVSS
VL: QSVLTQPPSASGTPGQRVTISCTGSSSNIGAGYDVHWYQQLPGTAPKLLIYSNNQRPSGVPDRFSGSKSGTSASLAISGLRSEDEADYYCSVWDDSLNSWVFGGGTKLTVLG
notes: also called 3-F10 (mouse)
Consider B2, for which the EC50 in assay [5] is 0.97 nM; in assay [6] it was 0.072 nM; in assay [7], 1.9 nM.
